Data reported in paper PMC4923858.

Experiments:
[1] = molecular target: TβRII-GFP (UniProt P37173); assay: AFM single-molecule force spectroscopy; TGF-β1-modified AFM tips on live HeLa cells expressing TβRII-GFP; contact mode, room temperature, loading rate 1.0 x 10^4 pN/s; untreated cells
[2] = molecular target: TβRII-GFP (UniProt P37173); assay: AFM single-molecule force spectroscopy; TGF-β1-modified AFM tips on live HeLa cells expressing TβRII-GFP; contact mode, room temperature, loading rate 1.0 x 10^4 pN/s; cells treated with 50 μM metformin

Sequence of TβRII-GFP (P37173 23-567): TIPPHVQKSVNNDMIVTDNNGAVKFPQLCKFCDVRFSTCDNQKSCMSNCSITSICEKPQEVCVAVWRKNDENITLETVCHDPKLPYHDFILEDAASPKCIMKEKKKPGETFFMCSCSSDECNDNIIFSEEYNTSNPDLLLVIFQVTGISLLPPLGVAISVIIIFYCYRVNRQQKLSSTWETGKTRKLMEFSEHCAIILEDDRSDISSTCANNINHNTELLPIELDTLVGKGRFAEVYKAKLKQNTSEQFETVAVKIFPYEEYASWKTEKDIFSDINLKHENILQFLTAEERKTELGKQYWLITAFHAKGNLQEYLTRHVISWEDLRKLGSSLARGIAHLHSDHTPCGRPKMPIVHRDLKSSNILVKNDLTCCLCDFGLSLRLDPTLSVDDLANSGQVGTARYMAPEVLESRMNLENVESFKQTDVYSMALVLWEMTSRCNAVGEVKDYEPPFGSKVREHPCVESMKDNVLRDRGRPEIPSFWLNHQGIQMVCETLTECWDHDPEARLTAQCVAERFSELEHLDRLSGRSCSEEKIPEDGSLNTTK

- binding force (averaged histogram peak value) [1]: 49.5 pN
- binding probability [1]: 21.7%
- binding force (averaged histogram peak value), with 50 μM metformin [2]: 49.3 pN
- binding probability, with 50 μM metformin [2]: 9.9%
Substance: Recombinant human TGF-β1 (ligand)
